Results taken from US8389575B2, “Control of enzymatic peracid generation” (E.I. du Pont de Nemours and Company, priority 2008, dated 2013).

B1: Thermotoga maritima MSB8 perhydrolase: acetyl xylan esterase with perhydrolase activity from Thermotoga maritima MSB8 (SEQ ID NO: 16), cell extract of E. coli KLP18/pSW207 (protein, listed as Thermotoga maritima)
chain: MAFFDLPLEELKKYRPERYEEKDFDEFWEETLAESEKFPLDPVFERMESHLKTVEAYDVTFSGYRGQRIKGWLLVPKLEEEKLPCVVQYIGYNGGRGFPHDWLFWPSMGYICFVMDTRGQGSGWLKGDTPDYPEGPVDPQYPGFMTRGILDPRTYYYRRVFTDAVRAVEAAASFPQVDQERIVIAGGSQGGGIALAVSALSKKAKALLCDVPFLCHFRRAVQLVDTHPYAEITNFLKTHRDKEEIVFRTLSYFDGVNFAARAKIPALFSVGLMDNICPPSTVFAAYNYYAGPKEIRIYPYNNHEGGGSFQAVEQVKFLKKLFEKG
B2: Thermotoga neapolitana perhydrolase: acetyl xylan esterase with perhydrolase activity from Thermotoga neapolitana (SEQ ID NO: 14), cell extract of E. coli KLP18/pSW196 (protein, listed as Thermotoga neapolitana)
chain: MAFFDMPLEELKKYRPERYEEKDFDEFWRETLKESEGFPLDPVFEKVDFHLKTVETYDVTFSGYRGQRIKGWLLVPKLAEEKLPCVVQYIGYNGGRGFPHDWLFWPSMGYICFVMDTRGQGSGWMKGDTPDYPEGPVDPQYPGFMTRGILDPGTYYYRRVFVDAVRAVEAAISFPRVDSRKVVVAGGSQGGGIALAVSALSNRVKALLCDVPFLCHFRRAVQLVDTHPYVEITNFLKTHRDKEEIVFRTLSYFDGVNFAARAKVPALFSVGLMDTICPPSTVFAAYNHYAGPKEIRIYPYNNHEGGGSFQAIEQVKFLKRLFEEG

How the values were obtained:
[1] = Dependence of specific activity on pH for hydrolysis of triacetin by CE-7 esterases/perhydrolases (cell extracts of E. coli KLP18 transformants); format: biochemical; conditions: 200 mM triacetin, 25° C.
Procedure: A cell extract of an E. coli transformant expressing perhydrolase from Thermotoga neapolitana (KLP18/pSW196), Thermotoga maritima MSB8 (KLP18/pSW207), Bacillus pumilus PS213 (KLP1S/pSW195), Bacillus subtilis BE1010 (KLP18/pSW189), Bacillus subtilis ATCC® 31954™ (KLP18/pSW194), or Bacillus licheniformis ATCC® 14580™ (KLP18/pSW191) was prepared by passing a suspension of cell paste (20 wt % wet cell weight) in 0.05 M potassium phosphate buffer (pH 7.0) containing dithiothreitol (1 mM) twice through a French press having a working pressure of 16,000 psi (˜110 MPa). The crude extract was then centrifuged at 20,000×g to remove cellular debris, producing a clarified cell extract that was assayed for total soluble protein (Bicinchoninic Acid Kit for Protein Determination, Sigma Aldrich catalog #BCA1-KT). A portion of the clarified Thermotoga maritima MSB8 or Thermotoga neapolitana perhydrolase-containing extract was additionally heated for 20 min at 75° C., followed immediately by cooling in an ice/water bath to 5° C. The resulting mixture was centrifuged to remove precipitated protein, and the supernatant collected and assayed for total soluble protein as before.
Reactions (10 mL total volume) containing triacetin (200 mM) and cell extract supernatant (prepared as described above) were run at 25° C. and at a pH between 4.5 and 10.0, using the buffers and buffer concentrations listed in Table 5. The concentration of extract total protein (with or without heat-treatment to denature and precipitate E. coli-derived protein) was chosen to produce an ca. 50 mM decrease in triacetin concentration over 30 min (typically from 0.025 mg/mL to 0.40 mg/mL of total extract protein, dependent on the perhydrolase). A control reaction for each reaction condition was run to determine the concentration of triacetin hydrolyzed in the absence of added extract protein. Samples (100 μL) were removed at predetermined times and immediately added to 297 μL of dd H2O and 3 μL of 6N HCL. The resulting solution was mixed, then filtered using a 30,000 NMWL filter (Millipore) using a microcentrifuge for 2 min at 12,000 rpm. An aliquot of the filtrate (100 μL) was added to 150 μL of 0.417 mM N,N-diethyl meta-toluamide (external standard) in acetonitrile, and the resulting solution analyzed for triacetin by HPLC using a Supelco Discovery C8 column (25 cm×4.0 mm, 5 um; Supelco #59353-U40) and an isocratic mobile phase of 40% acetonitrile/60% distilled water at a flow rate of 1 mL/min. Triacetin was measured by UV detection at 225 nm.

[2] = Peracetic acid production by perhydrolases, control by initial reaction pH in sodium citrate buffer; format: biochemical; conditions: triacetin 100 mM, 0.050 mg/mL extract total protein, 25° C.
Procedure: A cell extract of a transformant expressing perhydrolase from Bacillus pumilus PS213 (KLP18/pSW195), Thermotoga maritima MSB8 (KLP18/pSW207), Thermotoga neapolitana (KLP18/pSW196), or Bacillus subtilis ATCC® 31954™ (KLP18/pSW194) was prepared by passing a suspension of cell paste (20 wt % wet cell weight) in 0.05 M potassium phosphate buffer (pH 7.0) containing dithiothreitol (1 mM) twice through a French press having a working pressure of 16,000 psi (˜110 MPa). The crude extract was then centrifuged at 20,000×g to remove cellular debris, producing a clarified cell extract that was assayed for total soluble protein (Bicinchoninic Acid Kit for Protein Determination, Sigma Aldrich catalog #BCA1-KT). The supernatant was frozen in dry ice and stored at −80° C.
Reactions (10 mL total volume) containing triacetin, hydrogen peroxide and centrifuged cell extract supernatant (prepared as described above) in 50 mM sodium citrate buffer (initial pH 7.2 or 6.5) were run at 25° C. A control reaction for each reaction condition was run to determine the concentration of peracetic acid produced by chemical perhydrolysis of triacetin by hydrogen peroxide in the absence of added extract protein (data not shown). Determination of the concentration of peracetic acid in the reaction mixtures was performed according to the method described by Karst et al., supra.

[3] = pH 7.0, potassium phosphate 0.15 M
[4] = pH 7.5, potassium phosphate 0.15 M
[5] = pH 8.0, potassium phosphate 0.20 M
[6] = pH 8.5, Tris(hydroxymethyl)aminomethane 0.20 M
[7] = pH 9.0, Tris(hydroxymethyl)aminomethane 0.20 M
[8] = initial pH 6.5, sodium citrate 50 mM, H2O2 100 mM
[9] = initial pH 6.5, sodium citrate 50 mM, H2O2 250 mM
[10] = initial pH 7.2, sodium citrate 50 mM, H2O2 100 mM
[11] = initial pH 7.2, sodium citrate 50 mM, H2O2 250 mM

Molecule	specific activity (mmol triacetin/min/mg total extract protein) ([1]; pH 5.5, sodium acetate 0.15 M)	specific activity (mmol triacetin/min/mg total extract protein) ([1]; pH 6.0, sodium citrate 0.15 M)	specific activity (mmol triacetin/min/mg total extract protein) ([1]; pH 6.5, sodium citrate 0.15 M)	specific activity (mmol triacetin/min/mg total extract protein) [1, 3]	specific activity (mmol triacetin/min/mg total extract protein) [1, 4]	specific activity (mmol triacetin/min/mg total extract protein) [1, 5]	specific activity (mmol triacetin/min/mg total extract protein) [1, 6]	specific activity (mmol triacetin/min/mg total extract protein) [1, 7]	specific activity (mmol triacetin/min/mg total extract protein) ([1]; pH 9.5, glycine 0.20 M)	PAA, 1 min (ppm) [2, 8] [ppm]	PAA, 5 min (ppm) [2, 8] [ppm]	PAA, 30 min (ppm) [2, 8] [ppm]	PAA, 1 min (ppm) [2, 9] [ppm]	PAA, 5 min (ppm) [2, 9] [ppm]	PAA, 30 min (ppm) [2, 9] [ppm]	PAA, 1 min (ppm) [2, 10] [ppm]	PAA, 5 min (ppm) [2, 10] [ppm]	PAA, 30 min (ppm) [2, 10] [ppm]	PAA, 1 min (ppm) [2, 11] [ppm]	PAA, 5 min (ppm) [2, 11] [ppm]	also measured
B1	1.4 mmol triacetin/min/mg total extract protein	4.3 mmol triacetin/min/mg total extract protein	10.3 mmol triacetin/min/mg total extract protein	16.0 mmol triacetin/min/mg total extract protein	19.8 mmol triacetin/min/mg total extract protein	28.7 mmol triacetin/min/mg total extract protein	38.8 mmol triacetin/min/mg total extract protein	57.1 mmol triacetin/min/mg total extract protein	21.6 mmol triacetin/min/mg total extract protein	53	279	1540	95	742	2446	210	610	1995	635	1725	PAA, 30 min (ppm) [2, 11]: 3565 ppm
B2	0 mmol triacetin/min/mg total extract protein	0.4 mmol triacetin/min/mg total extract protein	1.7 mmol triacetin/min/mg total extract protein	3.3 mmol triacetin/min/mg total extract protein	5.3 mmol triacetin/min/mg total extract protein	5.8 mmol triacetin/min/mg total extract protein	11.3 mmol triacetin/min/mg total extract protein	12.5 mmol triacetin/min/mg total extract protein	12.0 mmol triacetin/min/mg total extract protein	221	607	1925	434	1260	2016	798	1748	2500	1790	2860	specific activity (mmol triacetin/min/mg total extract protein) ([1]; pH 10.0, glycine 0.20 M): 0 mmol triacetin/min/mg total extract protein; PAA, 30 min (ppm) [2, 11]: 3820 ppm
